Results from doi:10.1101/2024.09.13.612941.

T1: SMARCAD1 (human, UniProt Q9H4L7-2 1-1028, V974A)
T1 sequence: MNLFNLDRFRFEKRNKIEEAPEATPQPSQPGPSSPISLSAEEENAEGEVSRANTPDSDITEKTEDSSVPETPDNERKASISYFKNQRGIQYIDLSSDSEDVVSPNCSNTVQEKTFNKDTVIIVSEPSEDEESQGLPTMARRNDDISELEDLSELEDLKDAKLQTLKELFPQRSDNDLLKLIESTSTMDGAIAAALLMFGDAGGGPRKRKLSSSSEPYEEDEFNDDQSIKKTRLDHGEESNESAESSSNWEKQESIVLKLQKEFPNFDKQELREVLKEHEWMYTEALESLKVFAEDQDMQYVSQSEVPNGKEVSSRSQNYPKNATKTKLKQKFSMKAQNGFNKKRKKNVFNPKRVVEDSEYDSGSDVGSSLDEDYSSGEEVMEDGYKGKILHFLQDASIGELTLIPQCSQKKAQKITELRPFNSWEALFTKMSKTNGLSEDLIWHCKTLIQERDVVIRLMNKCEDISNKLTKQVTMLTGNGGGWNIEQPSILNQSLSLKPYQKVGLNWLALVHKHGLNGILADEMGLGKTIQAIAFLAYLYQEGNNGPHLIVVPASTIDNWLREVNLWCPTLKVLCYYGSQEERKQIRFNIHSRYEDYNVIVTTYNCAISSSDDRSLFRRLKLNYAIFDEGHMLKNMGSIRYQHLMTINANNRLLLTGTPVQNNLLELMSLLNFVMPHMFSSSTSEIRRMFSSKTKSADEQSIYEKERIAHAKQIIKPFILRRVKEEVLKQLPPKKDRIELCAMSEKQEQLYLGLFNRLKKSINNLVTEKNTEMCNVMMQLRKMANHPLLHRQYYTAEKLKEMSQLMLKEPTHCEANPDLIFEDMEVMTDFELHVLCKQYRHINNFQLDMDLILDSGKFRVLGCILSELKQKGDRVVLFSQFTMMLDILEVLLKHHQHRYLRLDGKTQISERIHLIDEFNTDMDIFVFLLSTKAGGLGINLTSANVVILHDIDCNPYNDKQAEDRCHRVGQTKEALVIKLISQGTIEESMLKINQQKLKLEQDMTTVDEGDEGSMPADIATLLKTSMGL

B1: R-loopshort (mixed)
DNA 1: GCCAGGGACGAGGTGAACCTGCAGGTGGGCGGCTACTACTTAGATGTCATCCGAGGCTTATTGGTAGAATTCGGCAGCGTCATGCGACGGC
DNA 2: GCCGTCGCATGACGCTGCCGAATTCTACCACGCGATTCATACCTGTCGTGCCAGCTGCTTTGCCCACCTGCAGGTTCACCTCGTCCCTGGC
RNA: GCAGCUGGCACGACAGGUAUGAAUC
B2: DNA-RNA hybrid (DNA:RNA)
RNA: GCAGCUGGCACGACAGGUAUGAAUC
DNA: GATTCATACCTGTCGTGCCAGCTGC
B3: dsDNAshort (dsDNA)
DNA 1: GCAGCTGGCACGACAGGTATGAATC
DNA 2: GATTCATACCTGTCGTGCCAGCTGC

Key:
SMARCAD1 [1] = target: T1, SMARCAD1; assay: fluorescence polarization
SMARCAD1 [2] = target: T1, SMARCAD1; assay: fluorescence polarization; remark: listed apart in the source

Row | Binder | apparent K (half saturation) (SMARCAD1 [1]) | binding result (SMARCAD1 [2])
1 | B1 | 26.1 ± 1.4 nM | 
2 | B2 |  | binds
3 | B3 | 39.5 ± 2 nM | 
